Patent US20230235052A1 (GRACELL BIOTECHNOLOGIES SHANGHAI, published 2023)

T1: human CD19 antigen (human, UniProt P15391 20-291, limits assumed)
T1 sequence (looked up): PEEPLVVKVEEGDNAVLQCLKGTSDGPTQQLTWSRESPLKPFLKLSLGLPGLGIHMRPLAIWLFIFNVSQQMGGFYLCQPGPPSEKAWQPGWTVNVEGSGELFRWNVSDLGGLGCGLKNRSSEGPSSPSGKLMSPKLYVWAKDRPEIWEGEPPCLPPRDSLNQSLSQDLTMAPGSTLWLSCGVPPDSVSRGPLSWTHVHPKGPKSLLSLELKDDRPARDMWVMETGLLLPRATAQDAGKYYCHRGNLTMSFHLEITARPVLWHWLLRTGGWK


molecular target: T1, human CD19 antigen; assay: SPR (Biacore), antibody captured via Fc
Procedure: Part of the antibodies in Example 1 were tested for affinity, and the composition of the heavy chain variable regions and the light chain variable regions of the antibodies to be tested are shown in Table 1.
(§1) HEK293 cells were used to express the antibodies to be tested and Protein A was used for purification. The surface plasmon resonance technique (SPR) was used for determination, and the Fc capture method was used for antibody fixation.

Kd [nM]	koff [s⁻¹]	Binder
109	0.000638	humanized CD19 antibody VH3 + VL2 (antibody, V domains shown, also called Antibody No. 8) VH: QVQLQESGPGLVKPSQTLSLTCTVSGVSLPDYGVSWIRQPPGKGLEWIGVIWGSETTYYNSALKSRLTISKDTSKNQVSLKLSSVTAADTAVYYCAKHYYYGGSYAMDYWGQGTTVTVSS VL: DIQMTQSPSSLSASVGDRVTITCRASQDISKYLNWYQQKPGKAPKLLIYHTSRLHSGVPSRFSGSGSGTDYTFTISSLQPEDIATYYCQQGNTLPYTFGGGTKLEIK
14.8	0.0018	humanized CD19 antibody VH5 + VL2 (antibody, V domains shown, also called Antibody No. 14) VH: QVQLQESGPGLVKPSQTLSVTCTVSGVSLPDYGVSWIRQPPGKGLEWLGVIWGSETTYYNSALKSRLTISKDTSKNQVSLKLSSLTAADTAVYYCAKHYYYGGSYAMDYWGQGTTVTVSS VL: DIQMTQSPSSLSASVGDRVTITCRASQDISKYLNWYQQKPGKAPKLLIYHTSRLHSGVPSRFSGSGSGTDYTFTISSLQPEDIATYYCQQGNTLPYTFGGGTKLEIK
40.7	0.0794	humanized CD19 antibody VH1 + VL3 (antibody, V domains shown, also called Antibody No. 3) VH: QVQLQESGPGLVKPSQTLSLTCTVSGVSLPDYGVSWIRQPPGKGLEWIGVIWGSETTYYNSALKSRVTISVDTSKNQFSLKLSSVTAADTAVYYCARHYYYGGSYAMDYWGQGTTVTVSS VL: DIQMTQSPSSLSASVGDRVTITCRASQDISKYLNWYQQKPGKAPKLLIYHTSRLHSGVPSRFSGSGSGTDYTLTISSLQPEDIATYYCQQGNTLPYTFGGGTKLEIK
99.7	0.000637	humanized CD19 antibody VH5 + VL1 (antibody, V domains shown, also called Antibody No. 13) VH: QVQLQESGPGLVKPSQTLSVTCTVSGVSLPDYGVSWIRQPPGKGLEWLGVIWGSETTYYNSALKSRLTISKDTSKNQVSLKLSSLTAADTAVYYCAKHYYYGGSYAMDYWGQGTTVTVSS VL: DIQMTQSPSSLSASVGDRVTITCRASQDISKYLNWYQQKPGKAPKLLIYHTSRLHSGVPSRFSGSGSGTDFTFTISSLQPEDIATYYCQQGNTLPYTFGGGTKLEIK
14.2	0.00143	humanized CD19 antibody VH5 + VL3 (antibody, V domains shown, also called Antibody No. 15) VH: QVQLQESGPGLVKPSQTLSVTCTVSGVSLPDYGVSWIRQPPGKGLEWLGVIWGSETTYYNSALKSRLTISKDTSKNQVSLKLSSLTAADTAVYYCAKHYYYGGSYAMDYWGQGTTVTVSS VL: DIQMTQSPSSLSASVGDRVTITCRASQDISKYLNWYQQKPGKAPKLLIYHTSRLHSGVPSRFSGSGSGTDYTLTISSLQPEDIATYYCQQGNTLPYTFGGGTKLEIK
66.8	0.000526	humanized CD19 antibody VH2 + VL2 (antibody, V domains shown, also called Antibody No. 5) VH: QVQLQESGPGLVKPSQTLSLTCTVSGVSLPDYGVSWIRQPPGKGLEWIGVIWGSETTYYNSALKSRVTISKDTSKNQVSLKLSSVTAADTAVYYCAKHYYYGGSYAMDYWGQGTTVTVSS VL: DIQMTQSPSSLSASVGDRVTITCRASQDISKYLNWYQQKPGKAPKLLIYHTSRLHSGVPSRFSGSGSGTDYTFTISSLQPEDIATYYCQQGNTLPYTFGGGTKLEIK
81	0.000584	humanized CD19 antibody VH4 + VL1 (antibody, V domains shown, also called Antibody No. 10) VH: QVQLQESGPGLVKPSQTLSLTCTVSGVSLPDYGVSWIRQPPGKGLEWLGVIWGSETTYYNSALKSRLTISKDTSKNQVSLKLSSVTAADTAVYYCAKHYYYGGSYAMDYWGQGTTVTVSS VL: DIQMTQSPSSLSASVGDRVTITCRASQDISKYLNWYQQKPGKAPKLLIYHTSRLHSGVPSRFSGSGSGTDFTFTISSLQPEDIATYYCQQGNTLPYTFGGGTKLEIK
57.6	0.00808	humanized CD19 antibody VH1 + VL1 (antibody, V domains shown, also called Antibody No. 1) VH: QVQLQESGPGLVKPSQTLSLTCTVSGVSLPDYGVSWIRQPPGKGLEWIGVIWGSETTYYNSALKSRVTISVDTSKNQFSLKLSSVTAADTAVYYCARHYYYGGSYAMDYWGQGTTVTVSS VL: DIQMTQSPSSLSASVGDRVTITCRASQDISKYLNWYQQKPGKAPKLLIYHTSRLHSGVPSRFSGSGSGTDFTFTISSLQPEDIATYYCQQGNTLPYTFGGGTKLEIK
89.2	0.000605	humanized CD19 antibody VH4 + VL2 (antibody, V domains shown, also called Antibody No. 11) VH: QVQLQESGPGLVKPSQTLSLTCTVSGVSLPDYGVSWIRQPPGKGLEWLGVIWGSETTYYNSALKSRLTISKDTSKNQVSLKLSSVTAADTAVYYCAKHYYYGGSYAMDYWGQGTTVTVSS VL: DIQMTQSPSSLSASVGDRVTITCRASQDISKYLNWYQQKPGKAPKLLIYHTSRLHSGVPSRFSGSGSGTDYTFTISSLQPEDIATYYCQQGNTLPYTFGGGTKLEIK
56.1	0.000437	humanized CD19 antibody VH4 + VL3 (antibody, V domains shown, also called Antibody No. 12) VH: QVQLQESGPGLVKPSQTLSLTCTVSGVSLPDYGVSWIRQPPGKGLEWLGVIWGSETTYYNSALKSRLTISKDTSKNQVSLKLSSVTAADTAVYYCAKHYYYGGSYAMDYWGQGTTVTVSS VL: DIQMTQSPSSLSASVGDRVTITCRASQDISKYLNWYQQKPGKAPKLLIYHTSRLHSGVPSRFSGSGSGTDYTLTISSLQPEDIATYYCQQGNTLPYTFGGGTKLEIK
15.8	0.00159	humanized CD19 antibody VH3 + VL3 (antibody, V domains shown, also called Antibody No. 9) VH: QVQLQESGPGLVKPSQTLSLTCTVSGVSLPDYGVSWIRQPPGKGLEWIGVIWGSETTYYNSALKSRLTISKDTSKNQVSLKLSSVTAADTAVYYCAKHYYYGGSYAMDYWGQGTTVTVSS VL: DIQMTQSPSSLSASVGDRVTITCRASQDISKYLNWYQQKPGKAPKLLIYHTSRLHSGVPSRFSGSGSGTDYTLTISSLQPEDIATYYCQQGNTLPYTFGGGTKLEIK
21000	0.00493	humanized CD19 antibody VH6 + VL4 (antibody, V domains shown, also called Antibody No. 16) VH: QVQLQESGPGLVKPSQTLSVTCTVSGVSLPDYGVSWIRQPPGKGLEWLGVIWGSETTYYNAALKSRLTISKDTSKNQVSLKLSSLTAADTAVYYCAKHYYYGGSYAMDYWGQGTTVTVSS VL: DIQMTQSPSSLSASVGDRVTITCRASQDISKYLNWYQQKPGKAPKLLIYHTSRLHSGVPSRFSGSGSGTDYTLTISSLQPEDIATYYCQQANTLPYTFGGGTKLEIK
111	0.000688	humanized CD19 antibody VH3 + VL1 (antibody, V domains shown, also called Antibody No. 7) VH: QVQLQESGPGLVKPSQTLSLTCTVSGVSLPDYGVSWIRQPPGKGLEWIGVIWGSETTYYNSALKSRLTISKDTSKNQVSLKLSSVTAADTAVYYCAKHYYYGGSYAMDYWGQGTTVTVSS VL: DIQMTQSPSSLSASVGDRVTITCRASQDISKYLNWYQQKPGKAPKLLIYHTSRLHSGVPSRFSGSGSGTDFTFTISSLQPEDIATYYCQQGNTLPYTFGGGTKLEIK
44.7	0.000395	humanized CD19 antibody VH2 + VL3 (antibody, V domains shown, also called Antibody No. 6) VH: QVQLQESGPGLVKPSQTLSLTCTVSGVSLPDYGVSWIRQPPGKGLEWIGVIWGSETTYYNSALKSRVTISKDTSKNQVSLKLSSVTAADTAVYYCAKHYYYGGSYAMDYWGQGTTVTVSS VL: DIQMTQSPSSLSASVGDRVTITCRASQDISKYLNWYQQKPGKAPKLLIYHTSRLHSGVPSRFSGSGSGTDYTLTISSLQPEDIATYYCQQGNTLPYTFGGGTKLEIK
7.95	0.00738	humanized CD19 antibody VH1 + VL2 (antibody, V domains shown, also called Antibody No. 2) VH: QVQLQESGPGLVKPSQTLSLTCTVSGVSLPDYGVSWIRQPPGKGLEWIGVIWGSETTYYNSALKSRVTISVDTSKNQFSLKLSSVTAADTAVYYCARHYYYGGSYAMDYWGQGTTVTVSS VL: DIQMTQSPSSLSASVGDRVTITCRASQDISKYLNWYQQKPGKAPKLLIYHTSRLHSGVPSRFSGSGSGTDYTFTISSLQPEDIATYYCQQGNTLPYTFGGGTKLEIK
69.8	0.000568	humanized CD19 antibody VH2 + VL1 (antibody, V domains shown, also called Antibody No. 4) VH: QVQLQESGPGLVKPSQTLSLTCTVSGVSLPDYGVSWIRQPPGKGLEWIGVIWGSETTYYNSALKSRVTISKDTSKNQVSLKLSSVTAADTAVYYCAKHYYYGGSYAMDYWGQGTTVTVSS VL: DIQMTQSPSSLSASVGDRVTITCRASQDISKYLNWYQQKPGKAPKLLIYHTSRLHSGVPSRFSGSGSGTDFTFTISSLQPEDIATYYCQQGNTLPYTFGGGTKLEIK

molecular target: T1, human CD19 antigen; assay: SPR (Biacore), antibody captured via Fc; remark: another data set of the same source
Procedure: Part of the antibodies in Example 1 were tested for affinity, and the composition of the heavy chain variable regions and the light chain variable regions of the antibodies to be tested are shown in Table 2.
as §1

Kd [nM]	koff [s⁻¹]	kon [M⁻¹ s⁻¹]	Binder
6.39	0.00116	181000	humanized CD19 antibody VH2 + VL7 (antibody, V domains shown) VH: QVQLQESGPGLVKPSQTLSLTCTVSGVSLPDYGVSWIRQPPGKGLEWIGVIWGSETTYYNSALKSRVTISKDTSKNQVSLKLSSVTAADTAVYYCAKHYYYGGSYAMDYWGQGTTVTVSS VL: DIQMTQSPSSLSASVGDRVTISCRASQDISKYLNWYQQKPDGTVKLLIYHTSRLHSGVPSRFSGSGSGTDFTFTISSLQPEDIATYFCQQGNTLPYTFGGGTKLEIK
6.93	0.00124	179000	humanized CD19 antibody VH2 + VL6 (antibody, V domains shown) VH: QVQLQESGPGLVKPSQTLSLTCTVSGVSLPDYGVSWIRQPPGKGLEWIGVIWGSETTYYNSALKSRVTISKDTSKNQVSLKLSSVTAADTAVYYCAKHYYYGGSYAMDYWGQGTTVTVSS VL: DIQMTQSPSSLSASVGDRVTITCRASQDISKYLNWYQQKPGGAVKLLIYHTSRLHSGVPSRFSGSGSGTDYTFTISSLQPEDIATYFCQQGNTLPYTFGGGTKLEIK
9.31	0.00121	129000	humanized CD19 antibody VH4 + VL6 (antibody, V domains shown) VH: QVQLQESGPGLVKPSQTLSLTCTVSGVSLPDYGVSWIRQPPGKGLEWLGVIWGSETTYYNSALKSRLTISKDTSKNQVSLKLSSVTAADTAVYYCAKHYYYGGSYAMDYWGQGTTVTVSS VL: DIQMTQSPSSLSASVGDRVTITCRASQDISKYLNWYQQKPGGAVKLLIYHTSRLHSGVPSRFSGSGSGTDYTFTISSLQPEDIATYFCQQGNTLPYTFGGGTKLEIK
